Experimental data reported in the nanobody polyreactivity screen of Harvey et al. (2022).

Test: yeast display, Sf9 membrane polyspecificity reagent, FACS + sequencing; frameworks hold sequencing errors
How it was run: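 Galactose-induced (36–48 hours) yeast carrying a synthetic nanobody display library were exposed to 10% biotinylated, detergent-solubilized Sf9 membrane reagent at 4 °C for 1 hour. FACS followed streptavidin microbead enrichment, using low and high (top ~1%) gates for expression (anti-HA) and reagent binding (streptavidin). Colony PCR, MiSeq 2 × 250 sequencing and CDR-length filtering followed. Labels for polyreactivity reflect the gate of origin.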

Sequence	polyreactivity (PSR sort gate)
QVQLVESGGGLVQAGGSLRLSCAASGFIFQWYAMGWYRPAPGKERELVAGISAGSTNYADSVKGRFTISRDNAKNTVYLQMNSLKPEDTAVYYCAARDYYIPYYSPGYPYDYWGQGTQVTVSS	high polyreactivity
QVQLVESGGGLVQAGGSLRLSCAASGFIFRAYAMGWYRQAPGKERELVAAISRSGSRTYYADSVKGRFTISRDHAKNTVYLQMNSLKPEDTAVYYCAADHGSLLYDYWGQGTQVTVSS	high polyreactivity
QVQLVESGGGLVQAGGSLRLSCAASGFIFRAYAMGWYRQAPGKERELVAAISWRGTSTYYADSVKGRFTISRDNAKNTVYLQMNSLKPEDTAVYYCARRRYLPFSRSQGSEDYWGQGTQVTVSS	high polyreactivity
QVQLVESGGGLVQAGGSLRLSCAASGFIFRDYVMGWYRQAPGKERELVAAISYRDGSTYYADSVKGRFTISRDNAKNTVYLQMNSLKPEDTAVYYCNAPGYQGYEYWGQGTQVTVSS	low polyreactivity
QVQLVESGGGLVQAGGSLRLSCAASGFIFRFYAMGWYRQAPGKERELVAGISSSGGSTYYADSLKGRFTISRDNAKTTVYLQMNSLKPEDTAVYYCNAKRSDQSSKTFNYWGQGTQVTVSS	low polyreactivity
QVQLVESGGGLVQAGGSLRLSCAASGFIFRFYAMGWYRQAPGKERELVAGISSSGGSTYYADSVKGRFTISRDNAKNTVYLQMNSLKPEDTAVYYCNAKRSDQSSKTFNYWGQGTQVTVSS	low polyreactivity
QVQLVESGGGLVQAGGSLRLSCAASGFIFRFYAMGWYRQAPGKERELVASISRRAGRTYYADSVKGRFTISRDNAKNTVYLQMNSLKPEDTAVYYCAASGFGSFRYSSTYDYWGQCTQVTVSS	high polyreactivity
QVQLVESGGGLVQAGGSLRLSCAASGFIFRGNTMGWYRQAPGKERELVAAISASGGSTYYADSVKGRFTISRDNAKNTVYLQMNSLKPEDTAVYYCNVAVIYRSRPYWYGMDYWGQGTQVTVSS	high polyreactivity
QVQLVESGGGLVQAGGSLRLSCAASGFIFRGYAMGWYRQAPGKERELVAAISRRGGSTYYADSVKGRFTISRHNAKNTVYLLMNSLKPEDTAVYYCNADTTQQGNVRVGYWGQGTQVTVSS	high polyreactivity
QVQLVESGGGLVQAGGSLRLSCAASGFIFRGYAMGWYRQAPGKERELVAAISTGGGRTYYADSVKGRFTISRDNAKNTVYLQMNSLKPEDTAVYYCNRRSYTQVLMDYWGQGTQVTVSS	high polyreactivity
QVQLVESGGGLVQAGGSLRLSCAASGFIFRHNGMGWYRQAPGKERELVAAITKRGGDTYYADSVKGRFTISRDNAKNSVYLQMISLKREDTAVYYCTVDVRYPVSFDYDYWGQGNQVTVSS	low polyreactivity
QVQLVESGGGLVQAGGSLRLSCAASGFIFRHYAMGWYRQAPGKEREFVAAISYRGDSTYYADSVKGRFTISRDNAKNTVYLQMNSLKPEDTAVYYCAATYVSSAYYSYDYWGQGTQVTVSS	high polyreactivity
QVQLVESGGGLVQAGGSLRLSCAASGFIFRHYAMGWYRQAPGKERELVAGINTSGGSTHYADSVKGRFTISRDNAKNTVYLQMNSLKPEDTAVYYCAADVYRYYAGSRYYYWGQGSQVTVSS	low polyreactivity
QVQLVESGGGLVQAGGSLRLSCAASGFIFRINAMGWYRQAPGKERELVAAITSSGGSTYYADSVKGRFTISRDNAKNTVYLQMNSLKPEDTAVYYCAASRPRPPSSRRMDYWGQGTQVTVSS	high polyreactivity
QVQLVESGGGLVQAGGSLRLSCAASGFIFRIYAMGWYRQAPGKERELVAAITWDGVSTYYADSVKGRFTISRDNAKNTVYLQMNSLKPEDTAVFYCAARKRSYPYYYWGQGTQVNVSS	high polyreactivity
QVQLVESGGGLVQAGGSLRLSCAASGFIFRKYAMGWYRQAPGKERELVAAITASGGSTYYGDSVKGRFTISRDNAKNTVYLQLNSLKPEDTAVYYCATDFHGAERWLKYVYWGQGTQVTVSS	high polyreactivity
QVQLVESGGGLVQAGGSLRLSCAASGFIFRKYAMGWYRQAPGKERELVAAITSSGGSTYYAGSVKGRFTISRDNAKNTVYLQMNSLKPEDTAVYYCAARLKQSGHDYWGQGTQVTVSS	high polyreactivity
QVQLVESGGGLVQAGGSLRLSCAASGFIFRLYAMGWYRQAPGKERELVAALSSGTSTYYADSVKGRFTISRDNAKNTVYLQMNSLKPEDSAVYYCAAVPRVNWSRYVYFWYDYWGQGTQVTVSS	high polyreactivity
QVQLVESGGGLVQAGGSLRLSCAASGFIFRNYAMGWYRQAPGKERELVAAITGRGTYTYYADSVKGRFTISRDNAKNTVYLQMNSLKPEDTAVYYCAARSLALVYRKYDYWGQGTQVTVSS	high polyreactivity
QVQLVESGGGLVQAGGSLRLSCAASGFIFRQNAMGWSRQAPGKDRELVAAISNAGITNYADSVKGRFTISRDNAKITVYLQMNSLKPEDTAVYYCAAVEFRDSTFVVVSSPTSKSDYWGQGTQVTVSS	low polyreactivity
QVQLVESGGGLVQAGGSLRLSCAASGFIFRQYAMGWYRQAPGKERELVAAISVGGGRTYYADSVKGRFTISRDNAKNTVYLQMNSLKPEVTAVYYCAASNWHSRGSGEYYWGQGTQVTVSS	high polyreactivity
QVQLVESGGGLVQAGGSLRLSCAASGFIFRRNAMGWYRQAPGKERELVAAIRFRSGSTYYAHSVKGRFTISRDNAKNTVYLQKNSLKPEDTAVYYCAADNKRSWRYAYNYWGQRTQVTVSS	high polyreactivity

Sequence	polyreactivity (PSR sort gate)
QVQLVESGGGLVQAGGSLRLSCAASGFIFRRNAMGWYRQAPGKERELVAAIRQRGDSTYYADSVKGRFTISRDNAKNTVYLQMNSLKPEDTAVYYCATDHAYFHPEYDYWGQGTQVTVSS	low polyreactivity
QVQLVESGGGLVQAGGSLRLSCAASGFIFRRNAMGWYRQAPGKERELVAAITGGGGSTYYADSVKGRFTISRDNAKNTVYLQMNSLKPEDTAVYYCAVDWSRFYNRGGDYWGQGTQVTVSS	high polyreactivity
QVQLVESGGGLVQAGGSLRLSCAASGFIFRRNAMGWYRQAPGKERELVAAITKSGGSTYYADSVKGRFTISRDNAKNTVYLQMNSLKPEDTAVYYCAASDASGGGYWGQGTQVTVSS	high polyreactivity
QVQLVESGGGLVQAGGSLRLSCAASGFIFRRNAMGWYRQAPGKERELVAVISSRGGTYYADSVKGRFTISRDNAKNTVYLQMNSLKPEDTAVYYCAVDRGKYFPYRYDYWGQGTQVTVSS	high polyreactivity
QVQLVESGGGLVQAGGSLRLSCAASGFIFRRYAMGWYGQAPGKERELVAVIRSSGGSTYYADSVKGRFTISRDYAKNTVYLQMISLNPEDTAVYYCAAVSYSSYRYDYWGQGTQVTVSS	high polyreactivity
QVQLVESGGGLVQAGGSLRLSCAASGFIFRRYAMGWYRPAPGKERELVAAITGGGGSTYYADSVKGRFTISRDNAKNTVYLQMNSLKPEDSAVYYCAASQARNYKIYDYWGQGTQVTVSS	high polyreactivity
QVQLVESGGGLVQAGGSLRLSCAASGFIFRRYAMGWYRQAPGKERELVAAINYSGGSTYYADSVKGRFTISRDNAKNTVSLQMNSLKPEDTSVYYCNAFGLRYYEYDYWGQGTQVTVSS	low polyreactivity
QVQLVESGGGLVQAGGSLRLSCAASGFIFRRYAMGWYRQAPGKERELVAAISRGGGSTYYADSVKGRFTISRDNAKNTVYFQMNSLKPEDTAVYYCAARFVPYDAPLNERDYWGQGTQVTVSS	high polyreactivity
QVQLVESGGGLVQAGGSLRLSCAASGFIFRRYAMGWYRQAPGKERELVAAISWSGGSTYYADSVKGRFTISRDNAKNTVYLQMNSLKPEDTAVYYCAKVPTSASPYDHWGQGTQVTVSS	high polyreactivity
QVQLVESGGGLVQAGGSLRLSCAASGFIFRRYTMGWSRQAHGKERELVAAITSSGGTNYADSVKGRFTISRDNAKNTVYLQMNSLKPEDTAVYFCAAESVSSVWYDYLGQGTQVTVSS	high polyreactivity
QVQLVESGGGLVQAGGSLRLSCAASGFIFRRYTMGWYRQAPGKERELVATITRSVNTDYADSVKGRFTFSRDNAKNTVYLQMNSLKPEDTAVYYCAARKYYYFPVAYDYWGQGTQVTVSS	high polyreactivity
QVQLVESGGGLVQAGGSLRLSCAASGFIFRTYAMAWYRQAPGKERELVAAIRQSAGRTYYADSVKGRFTISRDNAKNTVYLQMISLKPEDTAVYYCAADRSPYRRQYDYWGQGTQVTVSS	high polyreactivity
QVQLVESGGGLVQAGGSLRLSCAASGFIFRTYAMGWYRQAPGKERELVAAISGTTGSTYYADSVKGRFTISRDNAKNTVYLQMNSLKPEDTAVYFCAADYYWYIRYEYWGQGSQVTVSS	low polyreactivity
QVQLVESGGGLVQAGGSLRLSCAASGFIFRVYGMGCYRQATAKERELVAAMTGGCGSTYYADSVKGRFTISRDNAKNTVYLQMNSLKPEDTAVYYCAAVRYSGVRYRYGIYSDTMDYWGQGTQVTVSS	high polyreactivity
QVQLVESGGGLVQAGGSLRLSCAASGFIFRWYAMGWSRQAPGKERELVAAISRSGDSTYYADSVKGRFTISRDNAKNTVYLQMNSLKPEDSAVYYCAADDRYYTYGYDYWGQGTQVTVSS	low polyreactivity
QVQLVESGGGLVQAGGSLRLSCAASGFIFRYNAMGLYRQAPGKERELVARINSGVSTNYADSVKGRFTISRDNAKNTVYLQMNSLKPEDTAVYYCNARVRRGYSRFDYWGQGTQVTVSS	high polyreactivity
QVQLVESGGGLVQAGGSLRLSCAASGFIFRYNAMGWYRQAPGKERELVARISSGGSTNYADSVKGRFTISRDNAKNTVYLQMNSLKPEDTAVYYCAVKQYWYIWSGYGYDYWGQGTQVTVSS	high polyreactivity
QVQLVESGGGLVQAGGSLRLSCAASGFIFRYYAMAWYRQAPGKERELVASISRRGGSTYYADSVKGRFTISRDNSKNTFYLQMIRLIPEDTAVYYCAADVVNTVYYPGYDYLGQGTQVTVSS	high polyreactivity
QVQLVESGGGLVQAGGSLRLSCAASGFIFRYYAMGSYRQAPGKERELVAAITSGGASTYYADSVKGRFTISRDNAMNTVYLQMNSLKPDDTAVYYCAADTSSYSEYEYWGQGTQVTVSS	low polyreactivity
QVQLVESGGGLVQAGGSLRLSCAASGFIFRYYAMGWYRQAPGKERELVAAIDYSGGSTNYADSVKGRFTISRDYAKNTVYLQMNSQKPEDTAVYYCNAEYTWHRGYDYWGQGTQVTVSS	low polyreactivity
QVQLVESGGGLVQAGGSLRLSCAASGFIFRYYAMGWYRQAPGKERELVAAIRRGGSTSYADSVKGRFTISRDNAKNTVYLQMNSLKPEDTAVYYCNALGNFGMDYWGQGTQVTVSS	high polyreactivity
